Reference: US20180009871A1 (INTARCIA THERAPEUTICS, published 2018)
Where no end group is shown, it is not given here. [ ]: non-standard residue; d: D form. Aib = CC(C)(N)C(=O)O

B1: Compound A20 (peptide)
peptide: YSHGTFTSDYSKYLD[Aib]KRAQEFV[Aib]WLEDEPSSGKPPPS-OH
modifications: N-terminus assumed
SMILES: CC(C)C[C@H](NC(=O)[C@H](Cc1ccc(O)cc1)NC(=O)[C@H](CCCCN)NC(=O)[C@H](CO)NC(=O)[C@H](Cc1ccc(O)cc1)NC(=O)[C@H](CC(=O)O)NC(=O)[C@H](CO)NC(=O)[C@@H](NC(=O)[C@H](Cc1ccccc1)NC(=O)[C@@H](NC(=O)CNC(=O)[C@H](Cc1c[nH]cn1)NC(=O)[C@H](CO)NC(=O)[C@@H](N)Cc1ccc(O)cc1)[C@@H](C)O)[C@@H](C)O)C(=O)N[C@@H](CC(=O)O)C(=O)NC(C)(C)C(=O)N[C@@H](CCCCN)C(=O)N[C@@H](CCCNC(=N)N)C(=O)N[C@@H](C)C(=O)N[C@@H](CCC(N)=O)C(=O)N[C@@H](CCC(=O)O)C(=O)N[C@@H](Cc1ccccc1)C(=O)N[C@H](C(=O)NC(C)(C)C(=O)N[C@@H](Cc1c[nH]c2ccccc12)C(=O)N[C@@H](CC(C)C)C(=O)N[C@@H](CCC(=O)O)C(=O)N[C@@H](CC(=O)O)C(=O)N[C@@H](CCC(=O)O)C(=O)N1CCC[C@H]1C(=O)N[C@@H](CO)C(=O)N[C@@H](CO)C(=O)NCC(=O)N[C@@H](CCCCN)C(=O)N1CCC[C@H]1C(=O)N1CCC[C@H]1C(=O)N1CCC[C@H]1C(=O)N[C@@H](CO)C(=O)O)C(C)C
B2: Compound A14 (peptide)
peptide: YSHGTFTSDYSKYLD[Aib]KRAQEFV[Aib]WLEDESSGAPPPS-OH
modifications: N-terminus assumed
SMILES: CC(C)C[C@H](NC(=O)[C@H](Cc1ccc(O)cc1)NC(=O)[C@H](CCCCN)NC(=O)[C@H](CO)NC(=O)[C@H](Cc1ccc(O)cc1)NC(=O)[C@H](CC(=O)O)NC(=O)[C@H](CO)NC(=O)[C@@H](NC(=O)[C@H](Cc1ccccc1)NC(=O)[C@@H](NC(=O)CNC(=O)[C@H](Cc1c[nH]cn1)NC(=O)[C@H](CO)NC(=O)[C@@H](N)Cc1ccc(O)cc1)[C@@H](C)O)[C@@H](C)O)C(=O)N[C@@H](CC(=O)O)C(=O)NC(C)(C)C(=O)N[C@@H](CCCCN)C(=O)N[C@@H](CCCNC(=N)N)C(=O)N[C@@H](C)C(=O)N[C@@H](CCC(N)=O)C(=O)N[C@@H](CCC(=O)O)C(=O)N[C@@H](Cc1ccccc1)C(=O)N[C@H](C(=O)NC(C)(C)C(=O)N[C@@H](Cc1c[nH]c2ccccc12)C(=O)N[C@@H](CC(C)C)C(=O)N[C@@H](CCC(=O)O)C(=O)N[C@@H](CC(=O)O)C(=O)N[C@@H](CCC(=O)O)C(=O)N[C@@H](CO)C(=O)N[C@@H](CO)C(=O)NCC(=O)N[C@@H](C)C(=O)N1CCC[C@H]1C(=O)N1CCC[C@H]1C(=O)N1CCC[C@H]1C(=O)N[C@@H](CO)C(=O)O)C(C)C
B3: Compound A15 (peptide)
peptide: YSHGTFTSDYSKYLD[Aib]SRAQEFV[Aib]WLEDEPSSGAPPPS-OH
modifications: N-terminus assumed
SMILES: CC(C)C[C@H](NC(=O)[C@H](Cc1ccc(O)cc1)NC(=O)[C@H](CCCCN)NC(=O)[C@H](CO)NC(=O)[C@H](Cc1ccc(O)cc1)NC(=O)[C@H](CC(=O)O)NC(=O)[C@H](CO)NC(=O)[C@@H](NC(=O)[C@H](Cc1ccccc1)NC(=O)[C@@H](NC(=O)CNC(=O)[C@H](Cc1c[nH]cn1)NC(=O)[C@H](CO)NC(=O)[C@@H](N)Cc1ccc(O)cc1)[C@@H](C)O)[C@@H](C)O)C(=O)N[C@@H](CC(=O)O)C(=O)NC(C)(C)C(=O)N[C@@H](CO)C(=O)N[C@@H](CCCNC(=N)N)C(=O)N[C@@H](C)C(=O)N[C@@H](CCC(N)=O)C(=O)N[C@@H](CCC(=O)O)C(=O)N[C@@H](Cc1ccccc1)C(=O)N[C@H](C(=O)NC(C)(C)C(=O)N[C@@H](Cc1c[nH]c2ccccc12)C(=O)N[C@@H](CC(C)C)C(=O)N[C@@H](CCC(=O)O)C(=O)N[C@@H](CC(=O)O)C(=O)N[C@@H](CCC(=O)O)C(=O)N1CCC[C@H]1C(=O)N[C@@H](CO)C(=O)N[C@@H](CO)C(=O)NCC(=O)N[C@@H](C)C(=O)N1CCC[C@H]1C(=O)N1CCC[C@H]1C(=O)N1CCC[C@H]1C(=O)N[C@@H](CO)C(=O)O)C(C)C
B4: Compound A16 (peptide)
peptide: YSHGTFTSDYSKYLD[Aib]TRAQEFV[Aib]WLEDEPSSGAPPPS-OH
modifications: N-terminus assumed
SMILES: CC(C)C[C@H](NC(=O)[C@H](Cc1ccc(O)cc1)NC(=O)[C@H](CCCCN)NC(=O)[C@H](CO)NC(=O)[C@H](Cc1ccc(O)cc1)NC(=O)[C@H](CC(=O)O)NC(=O)[C@H](CO)NC(=O)[C@@H](NC(=O)[C@H](Cc1ccccc1)NC(=O)[C@@H](NC(=O)CNC(=O)[C@H](Cc1c[nH]cn1)NC(=O)[C@H](CO)NC(=O)[C@@H](N)Cc1ccc(O)cc1)[C@@H](C)O)[C@@H](C)O)C(=O)N[C@@H](CC(=O)O)C(=O)NC(C)(C)C(=O)N[C@H](C(=O)N[C@@H](CCCNC(=N)N)C(=O)N[C@@H](C)C(=O)N[C@@H](CCC(N)=O)C(=O)N[C@@H](CCC(=O)O)C(=O)N[C@@H](Cc1ccccc1)C(=O)N[C@H](C(=O)NC(C)(C)C(=O)N[C@@H](Cc1c[nH]c2ccccc12)C(=O)N[C@@H](CC(C)C)C(=O)N[C@@H](CCC(=O)O)C(=O)N[C@@H](CC(=O)O)C(=O)N[C@@H](CCC(=O)O)C(=O)N1CCC[C@H]1C(=O)N[C@@H](CO)C(=O)N[C@@H](CO)C(=O)NCC(=O)N[C@@H](C)C(=O)N1CCC[C@H]1C(=O)N1CCC[C@H]1C(=O)N1CCC[C@H]1C(=O)N[C@@H](CO)C(=O)O)C(C)C)[C@@H](C)O
B5: Compound A17 (peptide)
peptide: YSHGTFTSDYSKYLD[Aib]ERAQEFV[Aib]WLEDEPSSGAPPPS-OH
modifications: N-terminus assumed
SMILES: CC(C)C[C@H](NC(=O)[C@H](Cc1ccc(O)cc1)NC(=O)[C@H](CCCCN)NC(=O)[C@H](CO)NC(=O)[C@H](Cc1ccc(O)cc1)NC(=O)[C@H](CC(=O)O)NC(=O)[C@H](CO)NC(=O)[C@@H](NC(=O)[C@H](Cc1ccccc1)NC(=O)[C@@H](NC(=O)CNC(=O)[C@H](Cc1c[nH]cn1)NC(=O)[C@H](CO)NC(=O)[C@@H](N)Cc1ccc(O)cc1)[C@@H](C)O)[C@@H](C)O)C(=O)N[C@@H](CC(=O)O)C(=O)NC(C)(C)C(=O)N[C@@H](CCC(=O)O)C(=O)N[C@@H](CCCNC(=N)N)C(=O)N[C@@H](C)C(=O)N[C@@H](CCC(N)=O)C(=O)N[C@@H](CCC(=O)O)C(=O)N[C@@H](Cc1ccccc1)C(=O)N[C@H](C(=O)NC(C)(C)C(=O)N[C@@H](Cc1c[nH]c2ccccc12)C(=O)N[C@@H](CC(C)C)C(=O)N[C@@H](CCC(=O)O)C(=O)N[C@@H](CC(=O)O)C(=O)N[C@@H](CCC(=O)O)C(=O)N1CCC[C@H]1C(=O)N[C@@H](CO)C(=O)N[C@@H](CO)C(=O)NCC(=O)N[C@@H](C)C(=O)N1CCC[C@H]1C(=O)N1CCC[C@H]1C(=O)N1CCC[C@H]1C(=O)N[C@@H](CO)C(=O)O)C(C)C
B6: Compound A19 (peptide)
peptide: YSHGTFTSDYSKWLD[Aib]SRAQEFV[Aib]WLEDEPSSGAPPPS-OH
modifications: N-terminus assumed
SMILES: CC(C)C[C@H](NC(=O)[C@H](Cc1c[nH]c2ccccc12)NC(=O)[C@H](CCCCN)NC(=O)[C@H](CO)NC(=O)[C@H](Cc1ccc(O)cc1)NC(=O)[C@H](CC(=O)O)NC(=O)[C@H](CO)NC(=O)[C@@H](NC(=O)[C@H](Cc1ccccc1)NC(=O)[C@@H](NC(=O)CNC(=O)[C@H](Cc1c[nH]cn1)NC(=O)[C@H](CO)NC(=O)[C@@H](N)Cc1ccc(O)cc1)[C@@H](C)O)[C@@H](C)O)C(=O)N[C@@H](CC(=O)O)C(=O)NC(C)(C)C(=O)N[C@@H](CO)C(=O)N[C@@H](CCCNC(=N)N)C(=O)N[C@@H](C)C(=O)N[C@@H](CCC(N)=O)C(=O)N[C@@H](CCC(=O)O)C(=O)N[C@@H](Cc1ccccc1)C(=O)N[C@H](C(=O)NC(C)(C)C(=O)N[C@@H](Cc1c[nH]c2ccccc12)C(=O)N[C@@H](CC(C)C)C(=O)N[C@@H](CCC(=O)O)C(=O)N[C@@H](CC(=O)O)C(=O)N[C@@H](CCC(=O)O)C(=O)N1CCC[C@H]1C(=O)N[C@@H](CO)C(=O)N[C@@H](CO)C(=O)NCC(=O)N[C@@H](C)C(=O)N1CCC[C@H]1C(=O)N1CCC[C@H]1C(=O)N1CCC[C@H]1C(=O)N[C@@H](CO)C(=O)O)C(C)C
B7: Compound A18 (peptide)
peptide: YSHGTFTSDYSKWLD[Aib]ARAQEFV[Aib]WLEDEPSSGAPPPS-OH
modifications: N-terminus assumed
SMILES: CC(C)C[C@H](NC(=O)[C@H](Cc1c[nH]c2ccccc12)NC(=O)[C@H](CCCCN)NC(=O)[C@H](CO)NC(=O)[C@H](Cc1ccc(O)cc1)NC(=O)[C@H](CC(=O)O)NC(=O)[C@H](CO)NC(=O)[C@@H](NC(=O)[C@H](Cc1ccccc1)NC(=O)[C@@H](NC(=O)CNC(=O)[C@H](Cc1c[nH]cn1)NC(=O)[C@H](CO)NC(=O)[C@@H](N)Cc1ccc(O)cc1)[C@@H](C)O)[C@@H](C)O)C(=O)N[C@@H](CC(=O)O)C(=O)NC(C)(C)C(=O)N[C@@H](C)C(=O)N[C@@H](CCCNC(=N)N)C(=O)N[C@@H](C)C(=O)N[C@@H](CCC(N)=O)C(=O)N[C@@H](CCC(=O)O)C(=O)N[C@@H](Cc1ccccc1)C(=O)N[C@H](C(=O)NC(C)(C)C(=O)N[C@@H](Cc1c[nH]c2ccccc12)C(=O)N[C@@H](CC(C)C)C(=O)N[C@@H](CCC(=O)O)C(=O)N[C@@H](CC(=O)O)C(=O)N[C@@H](CCC(=O)O)C(=O)N1CCC[C@H]1C(=O)N[C@@H](CO)C(=O)N[C@@H](CO)C(=O)NCC(=O)N[C@@H](C)C(=O)N1CCC[C@H]1C(=O)N1CCC[C@H]1C(=O)N1CCC[C@H]1C(=O)N[C@@H](CO)C(=O)O)C(C)C

target: human GLP-1 receptor (GLP-1R) (human, UniProt P43220 24-463); assay: cell-based or functional assay
Sequence (P43220 24-463): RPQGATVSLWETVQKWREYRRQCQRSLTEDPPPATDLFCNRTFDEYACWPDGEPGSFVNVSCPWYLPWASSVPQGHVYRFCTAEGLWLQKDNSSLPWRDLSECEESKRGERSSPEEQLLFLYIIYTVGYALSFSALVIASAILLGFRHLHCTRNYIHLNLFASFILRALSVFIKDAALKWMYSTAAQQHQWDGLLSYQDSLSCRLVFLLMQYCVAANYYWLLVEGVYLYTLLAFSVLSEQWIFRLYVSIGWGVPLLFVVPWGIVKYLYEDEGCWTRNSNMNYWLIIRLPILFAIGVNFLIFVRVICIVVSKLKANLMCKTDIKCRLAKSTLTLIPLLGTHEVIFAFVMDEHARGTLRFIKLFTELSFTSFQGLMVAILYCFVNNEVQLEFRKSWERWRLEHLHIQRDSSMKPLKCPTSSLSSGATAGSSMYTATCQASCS

Binder | hGLP1 pEC50 (cAMP) [pEC50]
B1 | < 9
B2 | < 9
B3 | < 9
B4 | < 9
B5 | < 9
B6 | < 9
B7 | < 9

target: human glucagon receptor (GCGR) (human, UniProt P47871 26-477); assay: cell-based or functional assay

Binder | hGCGR pEC50 (cAMP) [pEC50]
B1 | 13.3
B2 | 12
B3 | 11.4
B4 | 11.9
B5 | 11.1
B6 | 11
B7 | 12.4
